Source: patent publication US20120219503A1 (GENE TECHNO SCIENCE, published 2012)
Blank lines part the entries; values can stand above or below the binder they belong to. No end group written: not given here.

Assays:
hOPN5-BSA [1] = target: T1, hOPN5-BSA (also: conjugated to BSA, coupling site not given here); experiment: ELISA, hOPN5-BSA coated on the plate
T1 construct: RGD-containing synthetic peptide coupled to the carrier BSA and coated on ELISA or adhesion plates
T1 peptide: CVDTYDGRGDSVVYGLRS
Experimental: (§1) Binding of Ch33E10 and Hu33E10-VH1/VL6 IgG1/κ antibodies to hOPN5-BSA was examined by ELISA. As an antigen, synthetic oligopeptide ([…] provided by Gene Techno Science) conjugated to bovine serum albumin (hOPN5-BSA) was used. In a typical experiment, an ELISA plate was coated with 100 μl/well of 1 μg/ml hOPN5-BSA in 0.2 M Na₂CO₃ buffer (pH 9.4) overnight at 4° C., washed with Wash Buffer, and blocked with 300 μl/well of Blocking Buffer for 1 hr at room temperature. After washing with Wash Buffer, samples appropriately diluted in ELISA Buffer were applied at 100 μl/well in the ELISA plate. After incubating the ELISA plate overnight at 4° C. and washing with Wash Buffer, bound antibodies were detected using 100 μl/well of 1/2,000-diluted HRP-conjugated goat anti-human γ chain polyclonal antibody (SouthernBiotech). After incubating for 1 hr at room temperature and washing with Wash Buffer, color development was performed by adding 100 μl/well of ABTS substrate and stopped with 100 μl/well of 2% oxalic acid. Absorbance was read at 405 nm.
Binding of Hu33E10-VH5/VL6, Hu33E10-VH7/VL6 and Hu33E10-VH7.8/VL6 antibodies to hOPN5-BSA was compared to that of Ch33E10 by ELISA as described in Section 5. […] In repeated experiments, Hu33E10-VH7/VL6 and Hu33E10-VH7.8/VL6 behaved similarly to each other for binding to hOPN5-BSA.

hOPN5-BSA [2] = target: T1, hOPN5-BSA; experiment: ELISA, hOPN5-BSA coated on the plate, two independent experiments
Experimental: FIGS. 21A & 21B show ELISA analysis of the binding of Ch33E10 and Hu33E10-VH7/VLv2 IgG1/κ antibodies to hOPN5-BSA. Purified Ch33E10 and Hu33E10-VH7/VLv2 antibodies were tested at various concentrations, starting at 200 μg/ml (FIG. 21A) or 100 μg/ml (FIG. 21B) and serial 2-fold dilutions, for binding to hOPN5-BSA. The results of two independent experiments in duplicate (FIGS. 21A & 21B) are shown.
as §1, with “After incubating for 1 hr at room temperature and washing with Wash Buffer, color development was performed by adding 100 μl/well of ABTS substrate and stopped with 100 μl/well of 2% oxalic acid.” left out, “nm. […]” for “nm.”

hOPN5-BSA [3] = target: T1, hOPN5-BSA; experiment: ELISA, hOPN5-BSA coated on the plate (conclusion)

B2: Hu33E10-VH1/VL6 IgG1/κ antibody (antibody, V domains shown)
VH: EVQLVESGGGLVQPGGSLRLSCAASGFTFTDYYMIWVRQAPGKGLEWLGFIRNKANGYTTEYSASVKGRFTISRDNAKNSLYLQMNSLRAEDTAVYYCARGAYWGQGTMVTVSS
VL: DIVMTQSPLSLPVTPGEPASISCRSSQSIVHSNGNTYLEWYLQKPGQSPQLLIYRVSNRFSGVPDRFSGSGSGTDFTLKISRVEAEDVGVYYCFQGSFVPWTFGQGTKVEIK
notes: Human IgG1/κ form; also called product of NS0-Hu33E10-2 #22
- fold weaker binding than Ch33E10 (hOPN5-BSA [1]): ~100 fold

B4: Hu33E10-VH7.8/VL6 IgG1/κ antibody (antibody, V domains shown)
VH: EVQLVESGGGLVQPGGSLRLSCAASGFTFTDYYMIWVRQAPGKGLEWLGFIRNKANGYTTEYSASVKGRFTISRDNSKSILYLQMNSLRAEDTAVYYCARGAYWGQGTMVTVSS
VL: DIVMTQSPLSLPVTPGEPASISCRSSQSIVHSNGNTYLEWYLQKPGQSPQLLIYRVSNRFSGVPDRFSGSGSGTDFTLKISRVEAEDVGVYYCFQGSFVPWTFGQGTKVEIKR
notes: also called EJ3-1-1; product of NS0-Hu33E10-5 1E5 (EJ3-3 1E5)
- fold lower affinity than Ch33E10 (hOPN5-BSA [1]): ~3 fold

Continued, values first:

- binding result (hOPN5-BSA [1]): binds
B1: Ch33E10 (chimeric 33E10 IgG1/κ antibody) (antibody, V domains shown)
VH: EVKLVESGGGLVQPGGSLSLSCAASGFTFTDYYMIWVRQPPGKALEWLGFIRNKANGYTTEYSASVKGRFTISRDNSQSILYLQMNALRAEDSATYYCARGAYWGQGTLVTVSA
VL: DVLMTQTPLSLPVSLGDQASISCRSSQSIVHSNGNTYLEWYLQKPGQSPKLLIYRVSNRFSGVPDRFSGSGSGTDFTLKISRVEAEDLGVYYCFQGSFVPWTFGGGTKLEIK
notes: also called product of NS0-Ch33E10 2C11 (L4-2C11)

- fold difference of binding affinity from Ch33E10 (hOPN5-BSA [2]): ≤ 2 fold
- fold difference of affinity from Ch33E10 (hOPN5-BSA [3]): ≤ 3 fold
B3: Hu33E10-VH7/VLv2 IgG1/κ antibody (antibody, V domains shown)
VH: EVQLVESGGGLVQPGGSLRLSCAASGFTFTDYYMIWVRQAPGKGLEWLGFIRNKANGYTTEYSASVKGRFTISRDNAKSILYLQMNSLRAEDTAVYYCARGAYWGQGTMVTVSS
VL: DIVMTQSPDSLAVSLGERATISCRSSQSIVHSNGNTYLEWYLQKPGQPPKLLIYRVSNRFSGVPDRFSGSGSGTDFTLTISSLQAEDVAVYYCFQGSFVPWTFGQGTKVEIKR
notes: also called SP2-1; SP-2
